From the Immune Epitope Database (IEDB)

Assays:
Test in all cases: IEDB peptide-MHC binding, purified MHC/competitive/radioactivity; filed as Kd, often an IC50 or EC50 that approximates it; ≥ and ≤ were set here for values at or beyond the usual limits of such assays
HLA-A*02:03 = molecular target: HLA-A*02:03
HLA-A*02:02 = details: source organism: Vaccinia virus WR
HLA-A*02:06 = molecular target: HLA-A*02:06
HLA-A*33:01 = molecular target: HLA-A*33:01
HLA-A*03:01 = molecular target: HLA-A*03:01
HLA-A*31:01 = molecular target: HLA-A*31:01
HLA-A*11:01 = molecular target: HLA-A*11:01
HLA-A*68:01 = molecular target: HLA-A*68:01
[1] = source organism: Vaccinia virus WR
[2] = source organism: Mammarenavirus juninense
[3] = source organism: Mammarenavirus lassaense
[4] = source organism: Lassa virus Josiah
[5] = source organism: SARS coronavirus Tor2
[6] = source organism: Vaccinia virus Copenhagen
[7] = source organism: Lymphocytic choriomeningitis virus (strain Armstrong)
[8] = source organism: Dengue virus 3 Martinique/1243/1999

VIDRLPSET
Kd (HLA-A*02:03; [1]): 0.742 µM | Kd (HLA-A*02:02): 7.08 µM | Kd (HLA-A*02:06; [1]): 3.67 µM

TVFFTASLFL
Kd (HLA-A*33:01; [2]): ≥ 70 µM | Kd (HLA-A*03:01; [2]): 1.33 µM | Kd (HLA-A*31:01; [2]): 7.22 µM | Kd (HLA-A*11:01; [2]): 0.482 µM | Kd (HLA-A*68:01; [2]): 0.901 µM

TCQGSEDIK
Kd (HLA-A*33:01; [3]): ≥ 77.7 µM | Kd (HLA-A*03:01; [3]): ≥ 78 µM | Kd (HLA-A*31:01; [3]): ≥ 61.3 µM | Kd (HLA-A*11:01; [3]): 15.1 µM | Kd (HLA-A*68:01; [3]): ≥ 30 µM

QFKQDAKYSH
Kd (HLA-A*33:01; [4]): 10.6 µM | Kd (HLA-A*03:01; [4]): ≥ 70 µM | Kd (HLA-A*31:01; [4]): 18.2 µM | Kd (HLA-A*11:01; [4]): ≥ 69.7 µM | Kd (HLA-A*68:01; [4]): ≥ 70.1 µM

NLFSKNILKY
Kd (HLA-A*33:01; [1]): ≥ 70 µM | Kd (HLA-A*03:01; [1]): 0.656 µM | Kd (HLA-A*31:01; [1]): ≥ 70 µM | Kd (HLA-A*11:01; [1]): 16.3 µM | Kd (HLA-A*68:01; [1]): 8.77 µM

GMAMTTVLSI
Kd (HLA-A*02:03; source organism: Dengue virus 4 Philippines/H241/1956): 0.00652 µM

VFKDSFLRK
Kd (HLA-A*33:01; [1]): 1.88 µM | Kd (HLA-A*03:01; [1]): 0.322 µM | Kd (HLA-A*31:01; [1]): 0.154 µM | Kd (HLA-A*11:01; [1]): 0.216 µM | Kd (HLA-A*68:01; [1]): 0.776 µM

KLSSIKSKSR
Kd (HLA-A*33:01; [1]): ≥ 27.7 µM | Kd (HLA-A*03:01; [1]): 0.514 µM | Kd (HLA-A*31:01; [1]): 0.104 µM | Kd (HLA-A*11:01; [1]): 9.91 µM | Kd (HLA-A*68:01; [1]): 18.6 µM

ISIISIRPR
Kd (HLA-A*33:01; [1]): 0.701 µM | Kd (HLA-A*03:01; [1]): ≥ 24.1 µM | Kd (HLA-A*31:01; [1]): 0.00369 µM | Kd (HLA-A*11:01; [1]): 0.263 µM | Kd (HLA-A*68:01; [1]): 0.0434 µM

GFEARIVDK
Kd (HLA-A*33:01; [1]): 10.3 µM | Kd (HLA-A*03:01; [1]): ≥ 41 µM | Kd (HLA-A*31:01; [1]): 1.6 µM | Kd (HLA-A*11:01; [1]): 9.03 µM | Kd (HLA-A*68:01; [1]): 16.3 µM

AVVCYNSNY
Kd (HLA-A*33:01; [5]): ≥ 77.7 µM | Kd (HLA-A*03:01; [5]): 5.4 µM | Kd (HLA-A*31:01; [5]): 14.2 µM | Kd (HLA-A*11:01; [5]): 0.698 µM | Kd (HLA-A*68:01; [5]): 10.1 µM

TLFIDRGSIK
Kd (HLA-A*33:01; [6]): 4.65 µM | Kd (HLA-A*03:01; [6]): 0.0124 µM | Kd (HLA-A*31:01; [6]): 8.01 µM | Kd (HLA-A*11:01; [6]): 0.0324 µM | Kd (HLA-A*68:01; [6]): 0.0409 µM

KVILSEISFH
Kd (HLA-A*33:01; [7]): 16.4 µM | Kd (HLA-A*03:01; [7]): 1.37 µM | Kd (HLA-A*31:01; [7]): 2.07 µM | Kd (HLA-A*11:01; [7]): 0.812 µM | Kd (HLA-A*68:01; [7]): 12.7 µM

GIPYCNYSK
Kd (HLA-A*33:01; [4]): ≥ 24.2 µM | Kd (HLA-A*03:01; [4]): 3.33 µM | Kd (HLA-A*31:01; [4]): ≥ 45 µM | Kd (HLA-A*11:01; [4]): 0.118 µM | Kd (HLA-A*68:01; [4]): 0.444 µM

LLHCVTESYK
Kd (HLA-A*33:01; [1]): 3.27 µM | Kd (HLA-A*03:01; [1]): 0.0147 µM | Kd (HLA-A*31:01; [1]): 0.207 µM | Kd (HLA-A*11:01; [1]): 0.128 µM | Kd (HLA-A*68:01; [1]): 0.0236 µM

LLLGVGLAMA
Kd (HLA-A*02:03; [8]): 0.00233 µM | Kd (HLA-A*02:06; [8]): 0.00381 µM

KAPNVISSK
Kd (HLA-A*33:01; [1]): ≥ 22.6 µM | Kd (HLA-A*03:01; [1]): 0.00189 µM | Kd (HLA-A*31:01; [1]): 0.175 µM | Kd (HLA-A*11:01; [1]): 0.00702 µM | Kd (HLA-A*68:01; [1]): 0.155 µM
